Experiments:
[1] = target: T1, purified recombinant human α-synuclein (Homo sapiens, UniProt P37840); assay: Biacore peptide-protein binding assay; settings: 0.20-12.50 μM peptide, report point 20 seconds into dissociation
T1 construct: His (histidine tag) (N); purchased Sigma S7820-500UG
Description: Biacore experiments were performed using a Biacore 3000 instrument (GE Healthcare Biosciences, Upsala, Sweden) and HBS running buffer, pH 7.4, containing 10 mM HEPES, 150 mM NaCl, 3 mM EDTA, and 0.005% surfactant P20. A research-grade CM5 sensor chip was activated with a mixture containing equal molar amounts of EDC (N-ethyl-N′-(dimethylaminopropyl) carbodiide and NHS (N-hydroxysuccinimide). Purified recombinant human α-synuclein (N-terminal histidine tagged, Sigma, S7820-500UG), diluted in sodium acetate pH 3.1, was then injected and covalently coupled to a flow cell of the sensor chip surface by amide bonding. Residual unreacted sites were blocked with ethanolamine. A reference surface, to account for non-specific binding, was similarly generated by activating and blocking an adjacent flow cell. Approximately 1500 resonance units (RU), equivalent to a surface concentration of 1500 pg/mm^2 of α-synuclein, was immobilized.
To ascertain the binding interaction between α-synuclein knockdown peptides and α-synuclein, synthetic Tat-βsyn-degron peptide or control tat peptide was serially diluted and sequentially injected over the active surface containing immobilized α-synuclein and the reference surface for 3 minutes at a flow rate of 30 μl/minute. The peptides were then allowed to dissociate for 3 minutes during which time HBS running buffer was injected. The resultant sensorgrams were double-referenced by subtracting out the binding on the reference surface and the response from the HBS blank buffer control. Binding response report points were collected 20 seconds into the dissociation phase of the interaction at time 200 seconds, which represents a stable binding response and excludes bulk refractive index changes and nonspecific binding.

[2] = target: T2, phosphorylated (pS129) α-synuclein (Homo sapiens, UniProt P37840, A53T); assay: PFF mouse model of spreading synucleinopathy, pS129 α-synuclein immunostaining; assay type: in vivo; settings: PFF-injected M83 mice, 40 mg/kg i.p. over 20 days, at three months, vs Tat-βsyn group
T2 construct: tissue The Jackson Laboratory 004479; host or cells: coronal brain sections (substantia nigra, pons) of M83 mice injected with human α-synuclein PFFs
Description: M83 mice were injected intracerebrally (i.e.) into the right dorsal striatum with either 12.5 μg of α-synuclein pre-formed fibrils (PFFs) or PBS. Starting at 3 days prior to the PFF injection, mice were treated daily for 12 days with either Tat-βsyn or Tat-βsyn-degron peptide (40 mg/kg; i.p.) and once every other day for the subsequent 8 days (20 days in total, FIG. 5a). At the end of three months, coronal brain sections of the M83 mice were prepared and stained with antibodies against serine 129-phosphorylated α-synuclein (pS129syn), a marker of pathogenic synuclein aggregates, and Iba-1, a calcium-binding protein specifically expressed in macrophage and microglia as a marker of neuroinflammation.
PFFs were generated in-house based on the Volpicelli-Daley et al protocol. […] PFFs were characterized using a negative staining protocol and analyzed using an electron microscope. […] PFFs were visualized using a transmission electron microscope (FEI Tecnai 12 Bio Twin 120 kV TEM) coupled to a AMT XR80C CCD camera, and analyzed with ImageJ 1.5 and Matlab 2017b software. […]
Brains from M83 mice that received i.e. and i.p. injections were processed for immunohistochemistry. […] Coronal sections were analyzed using Fiji-ImageJ 1.5 software to detect the total area labeled with the peroxidase immunoreaction product. The results were analyzed using GraphPad Prism software.

Sequence: YGRKKRRQRRRRTKSGVYLVGRRRG (The sequence is synthesized (YGRKKRRQRRRRTKSGVYLVGRRRG)) [Tat-βsyn-degron]
- binding response to immobilized α-synuclein [1]: robust and similar binding
- pS129syn staining in pons [2]: significantly reduced
- pS129syn staining in substantia nigra pars compacta [2]: significantly reduced

— patent publication US20260027179A1, “ANTI-SYNUCLEINOPATHY PEPTIDE AND METHODS TO TREAT NEURODEGENERATIVE DISEASES” (University of British Columbia, priority 2021, published 2026)
